The values below come from patent US20140056903A1 (Regeneron, published 2014).

The target in test [1] is T1, human GFRα3 expressed with a C-terminal myc-myc-hexahistidine tag (human, UniProt O60609 32-374, biotinylated (sites not given) in ELISA format 2 and in the Octet cross-competition; not in SPR).
T1 construct: also called hGFRα3-mmh; hGFRα3-mmH
Kind of test: Octet cross-competition; biotin-hGFRα3-mmH pre-saturated with first antibody H4H2294S. Here is the method:
(§1) A cross-competition assay was conducted to assess the ability of select antibodies to compete with one another for binding to human GFRα3 using an Octet RED384 biosensor (Fortebio Inc.). The entire experiment was performed at 25° C. with the flow rate of 1000 rpm in Octet HBST buffer (0.01 M HEPES pH7.4, 0.15M NaCl, 3 mM EDTA, 0.05% v/v Surfactant P20, 0.1 mg/mL BSA). To assess whether 2 antibodies were able to compete with one another for binding to their respective epitopes on biotinylated recombinant human GFRα3 expressed with a C-terminal myc-myc-hexahistidine tag (biotin-hGFRα3-mmH; SEQ ID:370), around ˜1.2 nm of biotin-hGFRα3-mmH was first captured onto streptavidin-coated Octet sensor tips (Fortebio Inc, #18-5019) by submerging the tips for 1 minute into a 10 μg/mL solution of biotin-hGFRα3-mmH. The antigen coated sensor tips were then placed into wells containing 25 μg/mL solution of a first anti-GFRα3 monoclonal antibody for 4 minutes to saturate the biotin-hGFRα3-mmH surface. The sensor tips were then subsequently dipped into wells containing 25 μ/mL solution of a second anti-GFRα3 monoclonal antibody. The sensor tips were washed in Octet HBST buffer in between every step of the experiment. The real-time binding response was monitored during the course of the experiment and the binding response at the end of every step was recorded as shown in FIG. 9. The response of mAb-2 binding to biotin-hGFRα3-mmH pre-complexed with the first antibody was compared and competitive/non-competitive behavior of different anti-GFRα3 monoclonal antibodies was determined.

The target in test [2] is T1, human GFRα3 expressed with a C-terminal …. Kind of test: Octet cross-competition; biotin-hGFRα3-mmH pre-saturated with first antibody H4H2295S. Here is the method: as §1
The target is the same in test [3]. Nature of the test: Octet cross-competition; biotin-hGFRα3-mmH pre-saturated with first antibody H4H2212N. As for the experimental part: as §1
Test [4] shares this target. Nature of the test: Octet cross-competition; biotin-hGFRα3-mmH pre-saturated with first antibody H4H2355S. As for the experimental part:
as §1

For test [5] the target is unchanged. Kind of test: SPR, Ab captured, 25C. As for the experimental part:
Antibodies were tested for binding to human GFRα3 expressed with either a C-terminal myc-myc-hexahistidine tag (hGFRα3-mmh; SEQ ID: 370, a C-terminal hFc tag (hGFRα3-hFc; SEQ ID:371), or a C-terminal mFc tag (hGFRα3-mFc; SEQ ID:372), as well as monkey GFRα3 expressed with a C-terminal myc-myc-hexahistidine tag (MfGFRα3-mmh; SEQ ID:373). Anti-GFRα3 antibodies were captured on either a goat anti-mouse IgG polyclonal antibody (GE Healthcare, #BR-1008-38) or a mouse anti-human IgG monoclonal antibody (GE Healthcare, #BR-1008-39) surface created through direct amine coupling to a Biacore CM5 sensor chip. Kinetic experiments were carried out using HBS-EP (10 mM HEPES, 150 mM NaCl, 3 mM EDTA, 0.05% Surfactant P20, at pH 7.4) or PBS buffer containing 0.05% v/v surfactant P20 as both the running buffer and the sample buffer. Binding to human GFRα3-mmh or monkey GFRα3-mmh was evaluated by injecting several concentrations ranging from 200 to 7.4 nM (3-fold dilutions) across the captured antibody surface. Binding to human GFRα3-mFc or human GFRα3-hFc was evaluated by injecting several concentrations ranging from 100 to 3.7 nM (3-fold dilutions) across the captured antibody surface. Antibody-antigen association was monitored for up to 4 minutes, while dissociation in buffer was monitored for up to 20 minutes. Kinetic association (kₐ) and dissociation (kd) rate constants were determined by processing and fitting the data to a 1:1 binding model using Scrubber 2.0c curve fitting software. Binding dissociation equilibrium constants (KD) and dissociative half-lives (t_{1/2}) were calculated from the kinetic rate constants as: KD (M)=kd/kₐ and t_{1/2} (min)=[ln 2/(60*kd)].

Test [6] has the same target. Nature of the test: SPR, Ab captured, 37C. In outline: (§2)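 Rate constants (ka, kd) came from 1:1 fits of 3-fold analyte dilution series (100–3.7 nM Fc-tagged, 200–7.4 nM mmh-tagged) flowed over antibody captured via anti-IgG on CM5. Buffers were HBS-EP or PBS with 0.05% P20, pH 7.4. KD and half-life were derived from kd/ka and ln2/(60*kd).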
Test [7] has as its target T2, monkey GFRα3 expressed with a C-terminal myc-myc-hexahistidine tag (monkey (Mf), UniProt O60609 32-374 (human entry), limits assumed).
T2 construct: also called MfGFRα3-mmh; MfGFRα3-mmH
T2 chain: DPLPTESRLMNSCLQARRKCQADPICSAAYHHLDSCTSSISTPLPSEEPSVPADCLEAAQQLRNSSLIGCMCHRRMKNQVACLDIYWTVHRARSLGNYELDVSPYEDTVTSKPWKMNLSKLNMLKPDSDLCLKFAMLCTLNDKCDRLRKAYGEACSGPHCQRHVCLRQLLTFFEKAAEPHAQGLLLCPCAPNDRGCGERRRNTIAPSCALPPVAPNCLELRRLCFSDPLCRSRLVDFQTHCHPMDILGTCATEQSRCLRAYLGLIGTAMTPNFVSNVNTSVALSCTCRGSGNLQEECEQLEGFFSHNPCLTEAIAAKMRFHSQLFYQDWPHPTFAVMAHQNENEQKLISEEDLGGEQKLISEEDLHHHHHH
Nature of the test: SPR, Ab captured, 37C. In outline: as §2

B1: H4H2212N (antibody, human IgG4, V domains shown)
VH: EVQLLESGGGLVQPGGSLRLSCAASGFTFSSYAMSWVRQGPGKGLEWVSGISGSGGSTYNADSVKGRFTISRDNSKNTLYLQMNSLRAEDTAVYYCAKDSGTYWYYFDYWGQGILVTVSS
VL: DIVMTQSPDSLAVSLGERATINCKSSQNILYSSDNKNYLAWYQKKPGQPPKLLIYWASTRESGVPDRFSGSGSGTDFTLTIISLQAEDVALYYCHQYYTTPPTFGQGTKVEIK
notes: human IgG4 Fc (H4H)
For the molecule B1, the “binding response of second antibody (nm)” value was found to be 1.92 nm in test [1], 1.81 nm in test [2], 0.05 nm in test [3] and 1.95 nm in test [4].

B2: H4H2291S (antibody, human IgG4, V domains shown)
VH: EVQLVESGGGLVQPGESLRLSCAASGFTFSNYAMSWVRQAPGKGLEWVSVISGSGGSTYYADSVKGRFTMSRDNSKNTLYLQMNSLRAEDTAVYYCAKPPSRAARYFNYGMDVWGQGTTVTVSS
VL: AIRMTQSPSSVSASVGDRVTITCRASQGISSWLAWYQQKPGKAPKLLIYAASSLQSGVPSRFSGSGSGTDFTLTISSLQPEDFATYYCQQANSFPFTFGGGTKVEIK
notes: human IgG4 Fc (H4H)
For the molecule B2, the Kd in test [5] stood at 0.393 nM; in test [6], 0.58 nM; in test [7], 1.94 nM. The koff in test [5] was 0.000164 s⁻¹; in test [6] it was 0.000323 s⁻¹; in test [7] it was 0.000693 s⁻¹. The results for the kon in test [5], in test [6] and in test [7] were 418000 M⁻¹ s⁻¹, 558000 M⁻¹ s⁻¹ and 357000 M⁻¹ s⁻¹, respectively. Further, the results for the t1/2 in test [5], in test [6] and in test [7] were 70 min, 36 min and 17 min, respectively. In addition, the “binding response of second antibody (nm)” value was determined as 0.12 nm in test [1], 0.2 nm in test [2], 2.69 nm in test [3] and 0.31 nm in test [4].

B3: H4H2296S (antibody, human IgG4, V domains shown)
VH: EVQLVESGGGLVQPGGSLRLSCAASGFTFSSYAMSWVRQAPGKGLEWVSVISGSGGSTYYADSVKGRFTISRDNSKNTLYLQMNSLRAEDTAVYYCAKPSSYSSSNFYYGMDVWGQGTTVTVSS
VL: DIVMTQSPSSVSASVGDRVTITCRASQGISSWLAWYQQKPGKAPKLLIYAASSLRSGVPSRFSGSGSGTDFTLTITSLQPEDFATYYCQHTNSFPFTFGPGTKVEIK
notes: human IgG4 Fc (H4H)
As to B3, the results for the Kd in test [5], in test [6] and in test [7] were 0.332 nM, 0.802 nM and 10.3 nM, respectively. In addition, the koff in test [5] worked out at 0.000187 s⁻¹; in test [6] it was 0.000614 s⁻¹; in test [7], 0.00285 s⁻¹. The values for the kon in test [5], in test [6] and in test [7] were 563000 M⁻¹ s⁻¹, 765000 M⁻¹ s⁻¹ and 277000 M⁻¹ s⁻¹, respectively. In addition, the t1/2 in test [5] amounted to 62 min; in test [6], 19 min; in test [7], 4 min. The “binding response of second antibody (nm)” value in test [1] worked out at 0.04 nm; in test [2], 0.07 nm; in test [3], 2.36 nm; in test [4], 0.18 nm.

B4: H4H2295S (antibody, human IgG4, V domains shown)
VH: EVQLVESGGGLVQAGGSLRLSCVASGFTFSSYAMSWVRQAPGKGLEWVSAISGSGGSTYSADSVKGRFTISRDNSKNTLYLQMNSLRAEDTAVYYCTKPSSYSSSNFYYGMDVWGQGTTVTVSS
VL: DIQMTQSPSSVSASVGDRVTITCRASQGISSWLAWYQQKPGKAPKLLIYTASSLQSGVPSRFSGSGSRTDFTLTISSLQPEDFATYYCQQTNSLPLTFGPGTKVEIK
notes: human IgG4 Fc (H4H)
For the molecule B4, the Kd in test [5] was 0.54 nM; in test [6], 1.77 nM; in test [7] it was 20.4 nM. Also, the off-rate (koff) in test [5] stood at 0.000256 s⁻¹; in test [6], 0.00119 s⁻¹; in test [7], 0.00561 s⁻¹. Also, the kon in test [5] was determined as 475000 M⁻¹ s⁻¹; in test [6], 669000 M⁻¹ s⁻¹; in test [7], 276000 M⁻¹ s⁻¹. For the same molecule, the t1/2 in test [5] was determined as 45 min; in test [6] it was 10 min; in test [7], 2 min. Also, the “binding response of second antibody (nm)” value in test [1] was 0.04 nm; in test [2] it was 0.05 nm; in test [3], 2.15 nm; in test [4] it was 0.2 nm.

B5: H4H2236N3 (antibody, human IgG4, V domains shown)
VH: EVQLLESGGNLVQPGGSLRLSCAASGFTFSSYAMTWVRQAPGKGLEWVSTISGSGTSTYYADSVKGRFTISRDNSRDTVFLQMNSLRAEDTAVYYCSKPSALRFLHWLAMDVWGQGTLVTVSS
VL: DIQMTQSPSSLSAFVGDRVTITCRASQDIRNYLDWFQQKPGKAPKSLIYAASNLQSGVPSRFGGSGSGTDFTLTINSLQPEDFVTYYCQQYNSYPPTFGGGTKVEIK
notes: human IgG4 Fc (H4H)
With B5, the figures for the Kd in test [5] and in test [6] were 0.253 nM and 0.382 nM, respectively. The koff in test [5] amounted to 0.000233 s⁻¹; in test [6], 0.000748 s⁻¹. Moreover, the kon in test [5] is 922000 M⁻¹ s⁻¹; in test [6], 1.96e+06 M⁻¹ s⁻¹. Moreover, the t1/2 in test [5] was 50 min; in test [6], 15 min. Besides, the “binding response of second antibody (nm)” value in test [1] came out at 0.05 nm; in test [2], 0.01 nm; in test [3] it was 2.14 nm; in test [4] it was 0.18 nm.

B6: H4H2243N2 (antibody, human IgG4, V domains shown)
VH: QVQLVQSGAEVKKPGASVKVSCKASGYTFTSYGIIWVRQAPGQGLEWMGWISGYNGNTNYAQNLQGRVTMTTDTSTTTAYMELRSLRSDDTAVYYCARWGIATRPYYYYGMDVWGQGTTVTVSS
VL: DIQMTQSPSSLSASVGDRVTITCRASQDITNYLAWFQQKPGKAPKSLIYAASSLQSGVPSKFSGSGSGTDFTLTISSLQPEDFATYYCQQYNSYPPTFGPGTKVDIK
notes: human IgG4 Fc (H4H)
In the case of B6, the Kd in test [5] stood at 2.92 nM; in test [6], 5.2 nM. Besides, the koff amounted to 0.00078 s⁻¹ in test [5] and 0.00244 s⁻¹ in test [6]. Moreover, the kon in test [5] is 267000 M⁻¹ s⁻¹; in test [6], 469000 M⁻¹ s⁻¹. Also, the results for the t1/2 in test [5] and in test [6] were 15 min and 5 min, respectively. Besides, the “binding response of second antibody (nm)” value in test [1] was determined as 0.03 nm; in test [2], 0.01 nm; in test [3] it was 0.16 nm; in test [4], 0.09 nm.
